Reference: article PMC11342882

Molecular target: sACE2_(2).S01-IgG1 (human) (UniProt Q9BYF1)
Experiment: BLI

## Delta-RBD (from UniProt P0DTC2) (domain or fragment)
  Kd: 1 nM
